B1: recombinant HCMV pUL50 (His-tagged) (natural protein)
chain: MEMNKVLHQDLVQATRRILKLGPSELRVTDAGLICKNPNYSVCDAMLKTDTVYCVEYLLSYWESRTDHVPCFIFKNTGCAVSLCCFVRAPVKLVSPARHVGEFNVLKVNESLIVTLKDIEEIKPSAYGVLTKCVVRKSNSASVFNIELIAFGPENEGEYENLLRELYAKKAASTS
notes: also called His-tagged pUL50

What was measured:
[1] = molecular target: T1, Fluo-NLS-CPP (fluoresceinylated; pUL53 NLS 18-27 joined to HIV-1 Tat 47-59) (human cytomegalovirus (HCMV) | human …); test: fluorescence polarisation; 25 nM N-terminally fluoresceinylated peptide; recombinant pUL50 in two-fold serial dilutions from 20 µM; 0.1 M PB, 150 mM NaCl, 1 mM TCEP, pH 7.2, 0.01% Tween 20; settings: both partners purified
T1 construct: also called Fluo-NLS-CPP peptide; source: synthetic peptide (Fmoc solid-phase synthesis, HPLC purified)

[2] = molecular target: B1; test: ELISA; competition: pUL53 (1 µg/mL) coated on Immulon plates; peptide in serial dilutions from 10 µM together with His-tagged pUL50 (0.78 µg/mL) for 2.5 h; detection with anti-His-HRP; 0.1 M phosphate buffer pH 7.2, 0.1% BSA, 0.01% Tween 20; settings: both partners purified

| Binder | Kd [1] [nM] | IC50 [2] [nM] |
| --- | --- | --- |
| B1 | > 10000 | – |
| Ac-LTLHDLHDIFREHPELELKYLNMMKMAIT-NH2 (source: synthetic peptide (Fmoc solid-phase synthesis, HPLC purified)) [Hook peptide (acetylated pUL53 hook peptide, residues 59-87)] | – | 125 |

From publication PMC9505826, “A Peptide Inhibitor of the Human Cytomegalovirus Core Nuclear Egress Complex” (Pharmaceuticals, 2022)
